target: acetylcholine receptor; experiment: SPR, AchR on CM5 chip, peptide 10 µM

Binder | Binding affinity (RU)
KRPPPK [6mer-1-1180] | 34
KKCMGR [6mer-1-1144] | 25
RKCEKR [6mer-1-1154] | 41
KKMMPK [6mer-1-1146] | 34
KKPTNK [6mer-1-1193] | 33
KRKWWR [6mer-1-1150] | 34
RRDCKK [6mer-1-1145] | 40
RKYKEK [6mer-1-1152] | 23
KRFTDK [6mer-1-1137] | 33
RKYTKK [6mer-1-1191] | 39
KKYNPK [6mer-1-1170] | 25
RRMDAK [6mer-1-1181] | 21
RKIAFK [6mer-1-1171] | 40
RKTWEK [6mer-1-1175] | 23
KKKEAK [6mer-1-1151] | 34
KRATMK [6mer-1-1140] | 43
KRHEFK [6mer-1-1143] | 32
KRHMMK [6mer-1-1167] | 42
KKEEKR [6mer-1-1166] | 22
KRYTVR [6mer-1-1156] | 37
KKPNIK [6mer-1-1133] | 24

Binder | Binding affinity (RU)
RKKEKR [6mer-1-1155] | 28
RKMTPK [6mer-1-1149] | 30
RKPMMK [6mer-1-1158] | 33
KKMENR [6mer-1-1139] | 36
KRMSWK [6mer-1-1134] | 22
RRMNER [6mer-1-1188] | 41
RRAWPR [6mer-1-1159] | 39
RRDWAK [6mer-1-1160] | 29
RKDAIR [6mer-1-1174] | 30
KKCDHR [6mer-1-1162] | 41
RKAPHR [6mer-1-1147] | 35
RRCSHR [6mer-1-1148] | 31
RRHAHK [6mer-1-1187] | 26
KRNMHK [6mer-1-1141] | 40
KKEMMK [6mer-1-1185] | 29
KRDCFR [6mer-1-1138] | 21
KKCHWR [6mer-1-1189] | 40
KKADHK [6mer-1-1176] | 21
RRKAER [6mer-1-1132] | 31
KKHHAK [6mer-1-1164] | 41
RRATWR [6mer-1-1165] | 29

Binder | Binding affinity (RU)
RKKMAK [6mer-1-1178] | 29
RKMDIR [6mer-1-1169] | 32
RKCAFK [6mer-1-1163] | 21
RKHNKK [6mer-1-1153] | 23
RKDDDR [6mer-1-1192] | 36
RRHTMR [6mer-1-1177] | 21
KRMTPR [6mer-1-1179] | 40
KKHTER [6mer-1-1135] | 26
KKCMKR [6mer-1-1190] | 29
KKNNAK [6mer-1-1186] | 37
KKIEIK [6mer-1-1136] | 34
KKEKFR [6mer-1-1168] | 40
KKIPMK [6mer-1-1173] | 26
RRFNFR [6mer-1-1172] | 23
RKESVR [6mer-1-1157] | 36
RKIHNK [6mer-1-1183] | 35
RRDTVK [6mer-1-1184] | 30
KKTCHR [6mer-1-1182] | 35
KKETPR [6mer-1-1142] | 24
KRHWVK [6mer-1-1161] | 40

target: acetylcholine receptor; experiment: SPR, acetylcholine receptor on CM5 chip, peptide at 10 uM

Binder | Binding affinity (RU)
KRGFYK [6mer-1-597] | 148
RRWLSK [6mer-1-592] | 135
KRGYCR [6mer-1-600] | 139
RKGVTK [6mer-1-590] | 142
KKQLLK [6mer-1-587] | 148
KKLYQR [6mer-1-599] | 124
KKLQQK [6mer-1-589] | 139
RKVYRK [6mer-1-593] | 148
RKSRQK [6mer-1-585] | 144
RKWLSK [6mer-1-598] | 142
KRQLQR [6mer-1-594] | 121
KRVICK [6mer-1-586] | 136
KKSLCK [6mer-1-595] | 121
KKRLYR [6mer-1-591] | 147
RKGVLR [6mer-1-596] | 148
RRLVRK [6mer-1-588] | 153
